Data on one substance can be found in doi:10.1101/2022.09.14.507982.

The target of the test is F-actin (filamentous actin from rabbit muscle) (rabbit) (UniProt P68135). As to the kind of experiment: co-sedimentation.

The term Kd denotes a measure of binding affinity in units of concentration. For the substance “Ig3 domain of palladin (domain or fragment)”, the Kd was found to be 3.42 µM.
